Assay results reported in US5955073.

Target: human transferrin receptor (human) (UniProt P02786)

454A12-RNase conjugate (monoclonal antibody 454A12 against the human transferrin receptor coupled to RNase A)
inhibition of protein synthesis of K562 cells (% inhibition (P1, 0.1 µM)): 99
